For test [1], the target named is Importin β (UniProt Q14974). The test is described as follows: anti-GFP co-IP, Western blot. To be noted: reference: eGFP-HURP wild type; sites S627.
Test [2] concerns the target Kif5B (UniProt P33176). In words: anti-GFP co-IP, Western blot. To be noted: reference: eGFP-HURP wild type; sites S627.

For the substance “HURP 1-846 (from UniProt Q15398) eGFP-HURP S627A”, the “binding against the reference” value in test [1] and in test [2] was “lost” each time.
